Test results taken from paper PMC8548206, “Single-domain antibody screening by isPLA-seq” (Life Science Alliance, 2021).

Tests used:
Details in all cases: partners not purified
[1] = biological target: T1, HA-tagged SQSTM1 N-terminal region (1–220 aa) (Homo sapiens (Human)., UniProt Q13501); assay: proximity ligation; single sdAb DNA transfected along with HA-tagged SQSTM1 or its truncations; isPLA with anti-HA and anti-Flag antibodies 48 h after transfection
T1 construct: SQSTM1, residues 1-220; also called N-terminal region of SQSTM1 (1–220 aa); source: transfected, in cells (isPLA)

[2] = biological target: T2, HA-tagged SQSTM1 C-terminal region (221–440 aa) (Homo sapiens (Human)., UniProt Q13501); assay: as above
T2 construct: also called C-terminal SQSTM1; source: transfected, in cells (isPLA, co-IP)

[3] = biological target: T3, HA-tagged SQSTM1 (Homo sapiens (Human)., UniProt Q13501); assay: proximity ligation; pooled screen (isPLA-seq): Flag-tagged sdAb library co-transfected with HA-tagged SQSTM1 into HEK293T cells, fixed after 48 h, isPLA with anti-HA and anti-Flag antibodies, positive cells sorted by FACS, three rounds, CDR3 sequenced
T3 construct: autophagy receptor SQSTM1, full length; the printed limits 1-440 fit the human protein; also called HA-tagged bait; full length; source: HEK293T, transfected, in fixed cells (screen)

B1: Flag-tagged anti-SQSTM1 sdAb clone #1 (VHH)
VHH: QVQLVESGGGSVQAGGSLRLSCTASGGSEYSYSTFSLGWFRQAPGQEREAVAAIASMGGLTYYADSVKGRFTISRDNAKNTVTLQMNNLKPEDTAIYYCAAEGLVYWTTKKSFGGCLLHDWSWGQGTQVTVSS
notes: 21-aa CDR3 in place of the CDR3 of cAbBCII10; also called anti-SQSTM1 clone #1; sdAb #1; source: HEK293T, transfected (sdAb library in pcDNA3.1), in fixed cells; not shown: 3x Flag, C-terminal, kept
B1: no binding [1]; binds [2]; binds [3].
